Experimental data from the supplement of paper PMC9170038.

System: MS2 coat protein
Assay: apparent KD of MS2 coat protein; designed switch direction (-1 OFF switch, 1 ON switch): -1; higher = weaker reporter binding
In short: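 Stalled E. coli RNA polymerase transcribed designed RNA switches on Illumina chips, which were then titrated with SNAP-549-labelled MS2 coat protein, doubling from 0.7 or 1.5 nM to 3 µM. Steps lasted from 0.8–1.5 h at the lowest concentration to 10–20 min at the highest. The apparent KD is each design's median over clusters of curve-fitted normalised fluorescence.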

[1] = Eterna round: R95, input ligand: FMN 200 uM
[2] = Eterna round: R95, input ligand: microRNA oligo, concentration not stated
[3] = Eterna round: R95, input ligand: none
[4] = input ligand: microRNA oligo, concentration not stated

With “AACUGGACAGGAUAUGUUCUUGAGCACUUGAGGAUCACCCAAGUCGUCGAGAACUCAGGCACAGAAGGGUUAAUGA [Bera] (Eterna round: R97, puzzle: Exclusion 5)” the “apparent KD of MS2 coat protein” value (input ligand: FMN 200 uM) was 35.1 nM and the “apparent KD of MS2 coat protein” value (input ligand: none) was 17.7 nM.
With “AACUUGUAAGGAUAUACAUGAGGAUCACCCAUGUGUCCCACGAACCGACAGGUCGUCUGUAGAAGGUGCAACAU [Eternabot (L1) Solution 88] (Eterna round: R97, puzzle: Exclusion 3)” the “apparent KD of MS2 coat protein” value (input ligand: FMN 200 uM) was 29 nM and the “apparent KD of MS2 coat protein” value (input ligand: none) was 27.4 nM.
“AAGAAACAUGAGGAUCACCCAUGUGAGGAUAUGAAAAAGAAAAUAAAAUAAAUAAUAAUCAGAAGGCACAAAGG [Mat - Mod of Hog D6] (puzzle: Exclusion 1)” was tested, and the “apparent KD of MS2 coat protein” value [1] was 43.1 nM, the “apparent KD of MS2 coat protein” value [2] was 44.4 nM and the “apparent KD of MS2 coat protein” value [3] was 37.3 nM.
In the case of “AAGAAACAUGAGGAUCACCCAUGUGAGGAUAUGGCCCGCCCGGCGUGAGCUGGUUUUAUCAGAAGGCACAAAGG [salish99_ex1_r4_015] (Eterna round: R97, puzzle: Exclusion 1)”, the “apparent KD of MS2 coat protein” value (input ligand: FMN 200 uM) was 39.4 nM and the “apparent KD of MS2 coat protein” value (input ligand: none) was 44.6 nM.
For “AAGAAACAUGAGGAUCACCCAUGUGAGGAUAUGUAAAAGAAAAUAAAAUAAAGAAGAAACAGAAGGCACAAAGG [Mat - Mod of Hog D20] (puzzle: Exclusion 1)”, the “apparent KD of MS2 coat protein” value [1] was 53.4 nM, the “apparent KD of MS2 coat protein” value [2] was 43.4 nM and the “apparent KD of MS2 coat protein” value [3] was 43 nM.
With “AAGAAACAUGAGGAUCACCCAUGUGAGGAUAUGUAAAAUAAAAUAAAAUAAAGAAUAAACAGAAGGCACAAAGG [Mat - Mod of Hog D24] (puzzle: Exclusion 1)” the “apparent KD of MS2 coat protein” value [1] was 77.9 nM, the “apparent KD of MS2 coat protein” value [2] was 64.5 nM and the “apparent KD of MS2 coat protein” value [3] was 49.7 nM.
In the case of “AAGAACGUAGGAUAUACAUGAGGAUCACCCAUGUGAGGAAGGAGUAGGAAGCGUGGAAGUAGAAGGACGGAGAG [JR_Exclu3_Sub075] (puzzle: Exclusion 3)”, the “apparent KD of MS2 coat protein” value [1] was 27.9 nM, the “apparent KD of MS2 coat protein” value [2] was 39.4 nM and the “apparent KD of MS2 coat protein” value [3] was 29.3 nM.
“AAGAACGUGCAAGGAUAUCUCCACCAAACCGGCAGAGAAGGUGCACAUGAGGAUCACCCAUGUGACCUAAGGCUCUUAUGAGCC [Teismace] (Eterna round: R96, puzzle: Exclusion NG 1)” was tested, and the “apparent KD of MS2 coat protein” value (input ligand: FMN 200 uM) was 46.6 nM, the “apparent KD of MS2 coat protein” value [4] was 14.6 nM and the “apparent KD of MS2 coat protein” value (input ligand: none) was 18.5 nM.
For “AAGAAGAAGUAAGGAUAUGAAGAUUUGGUGGUGACAUGAGGAUCACCCAUGUGAAAACAAUAAGAUCAGAAGGUAUAAGAAGAA [AK ExNG2-3] (Eterna round: R96, puzzle: Exclusion NG 2)”, the “apparent KD of MS2 coat protein” value (input ligand: FMN 200 uM) was 522 nM, the “apparent KD of MS2 coat protein” value [4] was 434 nM and the “apparent KD of MS2 coat protein” value (input ligand: none) was 405 nM.
“AAGAAGACAGGAUAUACAUGAAAGAAAGAAAAGAAAAGAAAACAUGAGGAUCACCCAUGUAGAAGGGUCAAGAA [EteRNA is fun!] (Eterna round: R96, puzzle: Exclusion 2)” was tested, and the “apparent KD of MS2 coat protein” value [4] was 35.8 nM.
For “AAGAAGAUAGGAUAUACGAGGAGAGGAGAGAAGAGGAGAGGACAUGAGGAUCACCCAUGUAGAAGGAUCAGGAA [JR_Exclu2_Sub062] (puzzle: Exclusion 2)”, the “apparent KD of MS2 coat protein” value [1] was 28.9 nM, the “apparent KD of MS2 coat protein” value [2] was 29.6 nM and the “apparent KD of MS2 coat protein” value [3] was 28.5 nM.
“AAGAAGAUAGGAUAUACGAGGAGAGGAGAGAAGAGGUGAGGACAUGAGGAUCACCCAUGUAGAAGGAUCAGGAA [JR_Exclu2_Sub063] (Eterna round: R96, puzzle: Exclusion 2)” was tested, and the “apparent KD of MS2 coat protein” value (input ligand: FMN 200 uM) was 169 nM, the “apparent KD of MS2 coat protein” value [4] was 91 nM and the “apparent KD of MS2 coat protein” value (input ligand: none) was 109 nM.
With “AAGAAGAUAGGAUAUACGAGGAGAGGAGAGAAGAGGUGAGGACAUGAGGAUCACCCAUGUAGAAGGAUCAGGAA [JR_Exclu2_Sub063] (puzzle: Exclusion 2)” the “apparent KD of MS2 coat protein” value [1] was 88.7 nM, the “apparent KD of MS2 coat protein” value [2] was 266 nM and the “apparent KD of MS2 coat protein” value [3] was 176 nM.
For “AAGAAGAUAGGAUAUACGAGGAGAGGAGAGAGAAGGUGAGGACAUGAGGAUCACCCAUGUAGAAGGAUCAGGAA [JR_Exclu2_Sub064] (puzzle: Exclusion 2)”, the “apparent KD of MS2 coat protein” value [1] was 81.3 nM, the “apparent KD of MS2 coat protein” value [2] was 88 nM and the “apparent KD of MS2 coat protein” value [3] was 89.9 nM.
“AAGAGAGCAGGAUAUACAUGAGGAUCACCCAUGUGGGAAAUAAGUGGCGUACCACAAAGUAGAAGGGCUUUCCA [jl-ex3-4.80 Eli automod] (Eterna round: R97, puzzle: Exclusion 3)” was tested, and the “apparent KD of MS2 coat protein” value (input ligand: FMN 200 uM) was 310 nM and the “apparent KD of MS2 coat protein” value (input ligand: none) was 86.2 nM.
In the case of “AAGAGCGUAGGAUAUACAUGAGGAUCACCCAUGUGUGGAGGACCUGGCCACAUAAGGAGUAGAAGGGCGCAUCU [Eternabot (L2) Solution 92] (Eterna round: R97, puzzle: Exclusion 3)”, the “apparent KD of MS2 coat protein” value (input ligand: FMN 200 uM) was 110 nM and the “apparent KD of MS2 coat protein” value (input ligand: none) was 87 nM.
For “AAGAGGUCAGGAUAUACGGAGAGAGGGAGUUGGUGAGGGUAACAUGAGGAUCACCCAUGUAGAAGGGACUAAGA [JR_Exclu2_Sub078] (puzzle: Exclusion 2)”, the “apparent KD of MS2 coat protein” value [2] was 22.4 nM.
“AAGAGGUCAGGAUAUACGGGAAGAGAGAGAAGUAGAGGGUAACAUGAGGAUCACCCAUGUAGAAGGGACUAAGA [JR_Exclu2_Sub072] (puzzle: Exclusion 2)” was tested, and the “apparent KD of MS2 coat protein” value [1] was 34.5 nM, the “apparent KD of MS2 coat protein” value [2] was 29.6 nM and the “apparent KD of MS2 coat protein” value [3] was 33.4 nM.
In the case of “AAGAUGUGAGGAUAUCACGAGAGCGUCACACGGACGCCCUCUGAGAAGGCACAUGAGGAUCACCCAUGUCCAAA [EX4 A.22] (Eterna round: R97, puzzle: Exclusion 4)”, the “apparent KD of MS2 coat protein” value (input ligand: FMN 200 uM) was 387 nM and the “apparent KD of MS2 coat protein” value (input ligand: none) was 65 nM.
For “AAGCUCACACGCUCGUCUUACAUGAGGAUCACCCAUGUCGCCGAGCUUCACAGGCUGAAGCUCAUAUAGGGUCAUGA [Eternabot (L2) Solution 26] (Eterna round: R97, puzzle: Sensor, turn-off variant 1)”, the “apparent KD of MS2 coat protein” value (input ligand: FMN 200 uM) was 85.1 nM and the “apparent KD of MS2 coat protein” value (input ligand: none) was 91.7 nM.
In the case of “AAGGAACAUGAGGAUCACCCAUGUGAGGAUAUGUGAGAAGGAUUUGAGAAGGAGAGGGACAGAAGGCACUAGGA [JR_Exclu1_Sub081] (puzzle: Exclusion 1)”, the “apparent KD of MS2 coat protein” value [2] was 34.7 nM.
For “AAGGGUGCCUUUAGAAAGACAUGAGGAUCACCCAUGUAGACUGAGGAUAUCCACUCCUAAGGACCGGAGAAGGCAGUGUAAUGC [Ex NG3 #62] (Eterna round: R96, puzzle: Exclusion NG 3)”, the “apparent KD of MS2 coat protein” value (input ligand: FMN 200 uM) was 62.1 nM, the “apparent KD of MS2 coat protein” value [4] was 18.6 nM and the “apparent KD of MS2 coat protein” value (input ligand: none) was 31.8 nM.
In the case of “AAGGUGUUAGGAUAUCGGAGGUUGAGGCAGACGGGAAUUUUCGAGAAGGAACAUGAGGAUCACCCAUGUAGUAG [JR_Exclu4_Sub038] (puzzle: Exclusion 4)”, the “apparent KD of MS2 coat protein” value [1] was 19.1 nM, the “apparent KD of MS2 coat protein” value [2] was 22.7 nM and the “apparent KD of MS2 coat protein” value [3] was 21.3 nM.
With “AAGUACCGUCACGAAAGUGAUGGUACAACAAGCAUGUAAACAUGAGGAUCACCCAUGUCCUCAUAUGCUCGUCUUAU [Sensor 3 - 63] (puzzle: Sensor v3, turn-off variant 2)” the “apparent KD of MS2 coat protein” value [1] was 480 nM, the “apparent KD of MS2 coat protein” value [2] was 32.5 nM and the “apparent KD of MS2 coat protein” value [3] was 533 nM.
“AAGUACCGUCACGAUAGUGAUGGUACAACAAGCAUGUAAACAUGAGGAUCACCCAUGUCCUCAAUUGCUCGUCUUAU [Sensor 3 - 68] (Eterna round: R96, puzzle: Sensor v3, turn-off variant 2)” was tested, and the “apparent KD of MS2 coat protein” value (input ligand: FMN 200 uM) was 956 nM, the “apparent KD of MS2 coat protein” value [4] was 809 nM and the “apparent KD of MS2 coat protein” value (input ligand: none) was 1060 nM.
With “AAGUACCGUCACGAUAGUGAUGGUACAACAAGCAUGUAAACAUGAGGAUCACCCAUGUCCUCAAUUGCUCGUCUUAU [Sensor 3 - 68] (puzzle: Sensor v3, turn-off variant 2)” the “apparent KD of MS2 coat protein” value [1] was 692 nM, the “apparent KD of MS2 coat protein” value [2] was 570 nM and the “apparent KD of MS2 coat protein” value [3] was 842 nM.
For “AAGUACCGUCACGAUAGUGAUGGUACAACAAGUGGUGAAACAUGAGGAUCACCCAUGUCCUCAAUUGCUCGUCUUAU [Sensor 3 - 85] (puzzle: Sensor v3, turn-off variant 2)”, the “apparent KD of MS2 coat protein” value [1] was 1030 nM, the “apparent KD of MS2 coat protein” value [2] was 231 nM and the “apparent KD of MS2 coat protein” value [3] was 999 nM.
For “AAGUACCGUCACGAUAGUGAUGGUACAGCAAGCAUGUAAACAUGAGGAUCACCCAUGUCCUCAAUUGCUCGUCUUAU [Sensor 3 - 70] (puzzle: Sensor v3, turn-off variant 2)”, the “apparent KD of MS2 coat protein” value [1] was 725 nM, the “apparent KD of MS2 coat protein” value [2] was 785 nM and the “apparent KD of MS2 coat protein” value [3] was 764 nM.
In the case of “AAGUACUACAAGCUUCGGGACAUGAGGAUCACCCAUGUUCGUCUUAUUGAUCUAGGUACGCUGACGUACCUAGAUCA [Mat - Sensor v3 - turn-off var 1 - JL Mod - D12] (puzzle: Sensor v3, turn-off variant 1)”, the “apparent KD of MS2 coat protein” value [1] was 14.9 nM, the “apparent KD of MS2 coat protein” value [2] was 59.4 nM and the “apparent KD of MS2 coat protein” value [3] was 14.7 nM.
For “AAGUAGACGGUGAGGAUAUAGGUCGAAUGACCGAUUUAGAAGGCACAUGAGGAUCACCCAUGUGGGUAACGUCG [Brourd's EX4 #30] (Eterna round: R97, puzzle: Brourd's mod of Exclusion 4)”, the “apparent KD of MS2 coat protein” value (input ligand: FMN 200 uM) was 24.1 nM and the “apparent KD of MS2 coat protein” value (input ligand: none) was 27.5 nM.
